Laboratory results reported in patent CN113061185A (EXCYTE BEIJING PHARMACEUTICAL TECH DEVELOPMENT CO LTD, dated 2021).
Residue numbers refer to the chain shown, from its start.

T1: BCMA on the surface of BCMA-positive cell lines H929 (NCI-H929) and RPMI8226 (human, UniProt Q02223 1-184)
T1 construct: whole, on cells; Endogenous BCMA of the cell lines; also called 细胞膜表面的BCMA抗原
T1 sequence (looked up): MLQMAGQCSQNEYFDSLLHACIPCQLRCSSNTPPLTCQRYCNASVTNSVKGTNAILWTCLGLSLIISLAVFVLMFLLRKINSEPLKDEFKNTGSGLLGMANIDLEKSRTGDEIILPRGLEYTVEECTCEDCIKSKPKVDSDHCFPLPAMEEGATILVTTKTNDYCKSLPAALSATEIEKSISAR

T2: BCMA-Fc fusion protein (Acrobiosystems, catalogue no. BC7-H5254) (human, UniProt Q02223 1-54)
T2 construct: Bought fusion protein; Used as coated antigen in ELISA; also called BCMA抗原; BCMA-Fc抗原; not shown: human Fc
T2 sequence (looked up): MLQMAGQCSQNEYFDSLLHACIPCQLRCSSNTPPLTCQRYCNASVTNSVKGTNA

B1: B10 parental antibody as expressed and purified in Example 3 (antibody, V domains shown)
VH: QVQLQQSGAEVKKPGSSVKVSCKASGGTFSSYAISWVRQAPGQGLEWMGGIIPIFGTANYAQKFQGRVTITADESTSTAYMELSSLRSEDTAVYYCARGWYFDLWGRGTLVTVSS
VL: LPVLTQPPSASGTPGQRVTISCSGSSSNIGGYSVNWYQQFPGTAPKLLIYRNNQRPSGVPDRFSGSKSGASASLAISGLQSEDEADYYCAAWDDSLIGYVFGTGTQLTVL
notes: also called 亲本B10; B10亲本抗体
B2: B10.3 (affinity-matured mutant of B10) (scFv)
scFv: QVQLQQSGAEVKKPGSSVKVSCKASGGTFSKSAIQWVRQAPGQGLEWMGGVIPIFGTANYAQKFQGRVTITADESTSTAYMELSSLRSEDTAVYYCARGWYLDLWGRGTLVTVSSGGSSRSSSSGGGGSGGGGLPVLTQPPSASGTPGQRVTISCSGSSNNIGGYSVNWYQQFPGTAPKLLIYRNNQRPSGVPDRFSGSKSGASASLAISGLQSEDEADYYCAAWDDSVIGWLFGTGTQLTVL
notes: also called 突变体B10.3
B3: B10.9 (affinity-matured mutant of B10) (scFv)
scFv: B2 scFv with V229E
notes: also called 突变体B10.9
B4: B10.5 (affinity-matured mutant of B10) (scFv)
scFv: B2 scFv with Q35H, N160S, E217V, V229L, W232Y, L233V
notes: also called 突变体B10.5
B5: B10.4 (affinity-matured mutant of B10) (scFv)
scFv: B2 scFv with Q35M
notes: also called 突变体B10.4

target: T1, BCMA on the surface of BCMA-positive …; experiment: flow cytometry on RPMI8226 cells; EC50 relative to J6

fold improvement of EC50 over J6 | Binder
~1.5 fold | B1

target: T1, BCMA on the surface of BCMA-positive …; experiment: flow cytometry on RPMI8226 cells

细胞结合百分率 (percent of cells bound) | Binder
54.9% | B2
42.9% | B3
58.2% | B4
57.5% | B5
5.54% | B1

target: T1, BCMA on the surface of BCMA-positive …; experiment: flow cytometry on RPMI8226 cells; EC50 relative to J6; remark: another data set of the same source

相对于J6提高倍数 (fold improvement of EC50 over J6) | Binder
97.1 fold | B2
60.7 fold | B3
67.5 fold | B4
79.9 fold | B5
1.74 fold | B1

target: T1, BCMA on the surface of BCMA-positive …; experiment: flow cytometry (FACS), apparent affinity on BCMA-bearing cells

Kd | Binder
0.3 nM | B1

target: T1, BCMA on the surface of BCMA-positive …; experiment: flow cytometry on H929 cells

细胞结合百分率 (percent of cells bound) | Binder
98% | B2
91.6% | B3
97.2% | B4
97.9% | B5
75.3% | B1

target: T2, BCMA-Fc fusion protein (Acrobiosystems, …); experiment: ELISA; affinity estimated from the EC50 ratio to J6 (J6 taken as 0.2 nM)

Kd | Binder
0.26 nM | B2
0.29 nM | B3
0.27 nM | B4
0.31 nM | B5

target: T2, BCMA-Fc fusion protein (Acrobiosystems, …); experiment: ELISA, intrinsic affinity

Kd | Binder
~10 nM | B1

target: T2, BCMA-Fc fusion protein (Acrobiosystems, …); experiment: ELISA on BCMA; EC50 relative to J6

Fold of J6 (EC50 ratio) | Binder
1.29 fold | B2
1.43 fold | B3
1.35 fold | B4
1.55 fold | B5

target: T1, BCMA on the surface of BCMA-positive …; experiment: flow cytometry, antibody titration on RPMI8226 cells

EC50 | Binder
0.0282 µg/mL | B2
0.0451 µg/mL | B3
0.0406 µg/mL | B4
0.0343 µg/mL | B5
1.57 µg/mL | B1
